Measured values published in IntAct's records for PubMed 17259181.

B1: Zinc finger protein ZAT7 (Arabidopsis thaliana (Mouse-ear cress)), Q42453 (parent)
chain: MVARSEEIVIVEEDTTAKCLMLLSRVGECGGGCGGDERVFRCKTCLKEFSSFQALGGHRASHKKLINSDNPSLLGSLSNKKTKTSHPCPICGVKFPMGQALGGHMRRHRNEKVSGSLVTRSFLPETTTVTALKKFSSGKRVACLDLDLDSMESLVNWKLELGRTISWS
partner: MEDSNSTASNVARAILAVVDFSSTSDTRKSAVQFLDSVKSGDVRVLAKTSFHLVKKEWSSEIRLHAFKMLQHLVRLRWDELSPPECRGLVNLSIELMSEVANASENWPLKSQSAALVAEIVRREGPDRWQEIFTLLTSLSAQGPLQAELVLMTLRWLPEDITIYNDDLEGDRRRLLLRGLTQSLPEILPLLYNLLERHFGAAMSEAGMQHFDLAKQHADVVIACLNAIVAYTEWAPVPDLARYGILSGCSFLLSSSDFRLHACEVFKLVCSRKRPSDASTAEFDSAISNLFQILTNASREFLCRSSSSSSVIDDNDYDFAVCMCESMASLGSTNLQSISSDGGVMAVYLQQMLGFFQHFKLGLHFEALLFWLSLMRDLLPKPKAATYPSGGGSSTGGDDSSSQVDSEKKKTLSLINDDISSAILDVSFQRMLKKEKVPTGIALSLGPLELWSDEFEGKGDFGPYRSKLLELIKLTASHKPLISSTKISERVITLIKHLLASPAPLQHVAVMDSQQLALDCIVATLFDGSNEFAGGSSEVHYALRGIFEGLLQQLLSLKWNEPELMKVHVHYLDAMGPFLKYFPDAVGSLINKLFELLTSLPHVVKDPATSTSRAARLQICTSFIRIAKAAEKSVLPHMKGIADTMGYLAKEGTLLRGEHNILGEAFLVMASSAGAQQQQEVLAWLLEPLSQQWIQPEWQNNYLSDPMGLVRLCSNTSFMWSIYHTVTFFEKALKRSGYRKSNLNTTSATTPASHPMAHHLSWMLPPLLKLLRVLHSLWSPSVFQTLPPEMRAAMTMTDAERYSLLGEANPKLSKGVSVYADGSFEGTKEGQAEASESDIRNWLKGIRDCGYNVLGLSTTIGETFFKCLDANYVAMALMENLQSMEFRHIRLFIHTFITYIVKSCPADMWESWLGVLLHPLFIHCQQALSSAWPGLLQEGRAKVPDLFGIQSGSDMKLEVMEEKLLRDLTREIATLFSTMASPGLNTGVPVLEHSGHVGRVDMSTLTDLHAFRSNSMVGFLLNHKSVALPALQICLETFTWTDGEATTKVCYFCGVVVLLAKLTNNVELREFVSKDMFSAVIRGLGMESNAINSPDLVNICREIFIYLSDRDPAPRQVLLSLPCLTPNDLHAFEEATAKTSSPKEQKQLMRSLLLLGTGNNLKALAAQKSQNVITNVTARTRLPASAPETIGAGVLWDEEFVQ

Variants of: B1
Details: with hasty_arath HST1, Q0WP44

effect of a mutation on the interaction | Variant
disrupting interaction | MVARSEEIVIVEEDTTAKCLMLLSRVGECGGGCGGDERVFRCKTCLKEFSSFQALGGHRASHKKLINSDNPSLLGSLSNKKTKTSHPCPICGVKFPMGQALGGHMRRHRNEKVSGSLVTRSFLPETTTVTALKKFSSGKRVACLAAALDSMESLVNWKLELGRTISWS [D145A;L146A;D147A]
